Results reported in patent publication US20240207433A1.

Target: human alpha-enolase protein (ENO-1) (human) (UniProt P06733)
Experiment: cell-based or functional assay

Sequence of UniProt P06733 (P06733 2-434): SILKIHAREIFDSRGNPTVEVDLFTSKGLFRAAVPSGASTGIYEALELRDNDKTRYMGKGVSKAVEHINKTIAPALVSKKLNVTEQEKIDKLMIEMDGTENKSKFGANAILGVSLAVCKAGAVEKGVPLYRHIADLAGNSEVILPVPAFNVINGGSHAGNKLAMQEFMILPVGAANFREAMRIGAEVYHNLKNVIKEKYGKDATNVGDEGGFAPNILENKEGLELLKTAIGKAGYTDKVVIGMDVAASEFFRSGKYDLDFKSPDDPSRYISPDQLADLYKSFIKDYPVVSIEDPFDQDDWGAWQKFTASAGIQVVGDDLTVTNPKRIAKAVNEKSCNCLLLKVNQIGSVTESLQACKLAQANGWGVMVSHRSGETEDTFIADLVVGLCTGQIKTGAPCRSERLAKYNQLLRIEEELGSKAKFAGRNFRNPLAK

HuL001-SMCC-DM1
IC50 of cytotoxicity (CCK-8), A549, IL-6: 0.0112 µM | IC50 of cytotoxicity (CCK-8), A549, MCP-1: 0.0121 µM | IC50 of cytotoxicity (CCK-8), A549, TGF-β: 0.0082 µM | IC50 of cytotoxicity (CCK-8), A549, untreated: 0.056 µM | IC50 of cytotoxicity (CCK-8), DB, IL-6: 0.0058 µM | IC50 of cytotoxicity (CCK-8), DB, MCP-1: 0.0041 µM | IC50 of cytotoxicity (CCK-8), DB, TGF-β: 0.0051 µM | IC50 of cytotoxicity (CCK-8), DB, untreated: 0.0055 µM | IC50 of cytotoxicity (CCK-8), GA-10, IL-6: 0.0266 µM | IC50 of cytotoxicity (CCK-8), GA-10, MCP-1: 0.0256 µM | IC50 of cytotoxicity (CCK-8), GA-10, TGF-β: 0.0228 µM | IC50 of cytotoxicity (CCK-8), GA-10, untreated: 0.0378 µM | IC50 of cytotoxicity (CCK-8), HT, IL-6: 0.0066 µM | IC50 of cytotoxicity (CCK-8), HT, MCP-1: 0.0076 µM | IC50 of cytotoxicity (CCK-8), HT, TGF-β: 0.0061 µM | IC50 of cytotoxicity (CCK-8), HT, untreated: 0.0073 µM | IC50 of cytotoxicity (CCK-8), MCF-7, IL-6: 0.0386 µM | IC50 of cytotoxicity (CCK-8), MCF-7, MCP-1: 0.0362 µM | IC50 of cytotoxicity (CCK-8), MCF-7, TGF-β: 0.0535 µM | IC50 of cytotoxicity (CCK-8), MCF-7, untreated: 0.0749 µM | IC50 of cytotoxicity (CCK-8), MDA-MB-175, IL-6: 0.0451 µM | IC50 of cytotoxicity (CCK-8), MDA-MB-175, MCP-1: 0.0405 µM | IC50 of cytotoxicity (CCK-8), MDA-MB-175, TGF-β: 0.0383 µM | IC50 of cytotoxicity (CCK-8), MDA-MB-175, untreated: 0.0764 µM | IC50 of cytotoxicity (CCK-8), MDA-MB-231, IL-6: 0.0346 µM | IC50 of cytotoxicity (CCK-8), MDA-MB-231, MCP-1: 0.0224 µM | IC50 of cytotoxicity (CCK-8), MDA-MB-231, TGF-β: 0.0242 µM | IC50 of cytotoxicity (CCK-8), MDA-MB-231, untreated: 0.0689 µM | IC50 of cytotoxicity (CCK-8), MDA-MB-453, IL-6: 0.0228 µM | IC50 of cytotoxicity (CCK-8), MDA-MB-453, MCP-1: 0.0247 µM | IC50 of cytotoxicity (CCK-8), MDA-MB-453, TGF-β: 0.0166 µM | IC50 of cytotoxicity (CCK-8), MDA-MB-453, untreated: 0.0398 µM | IC50 of cytotoxicity (CCK-8), PANC-1, IL-6: 0.134 µM | IC50 of cytotoxicity (CCK-8), PANC-1, MCP-1: 0.11 µM | IC50 of cytotoxicity (CCK-8), PANC-1, TGF-β: 0.116 µM | IC50 of cytotoxicity (CCK-8), PANC-1, untreated: 0.174 µM | IC50 of cytotoxicity (CCK-8), Raji, IL-6: 0.0171 µM | IC50 of cytotoxicity (CCK-8), Raji, MCP-1: 0.0217 µM | IC50 of cytotoxicity (CCK-8), Raji, TGF-β: 0.0186 µM | IC50 of cytotoxicity (CCK-8), Raji, untreated: 0.0322 µM | IC50 of cytotoxicity (CCK-8), SU-DHL-4, IL-6: 0.0083 µM | IC50 of cytotoxicity (CCK-8), SU-DHL-4, MCP-1: 0.0076 µM | IC50 of cytotoxicity (CCK-8), SU-DHL-4, TGF-β: 0.0074 µM | IC50 of cytotoxicity (CCK-8), SU-DHL-4, untreated: 0.00765 µM | IC50 of cytotoxicity (CCK-8), Toledo, IL-6: 0.0114 µM | IC50 of cytotoxicity (CCK-8), Toledo, MCP-1: 0.0081 µM | IC50 of cytotoxicity (CCK-8), Toledo, TGF-β: 0.0098 µM | IC50 of cytotoxicity (CCK-8), Toledo, untreated: 0.008 µM | IC50 of cytotoxicity (CCK-8), U937, IL-6: 0.0071 µM | IC50 of cytotoxicity (CCK-8), U937, MCP-1: 0.0097 µM | IC50 of cytotoxicity (CCK-8), U937, TGF-β: 0.0075 µM | IC50 of cytotoxicity (CCK-8), U937, untreated: 0.075 µM
